B1: LINE1-full (parent)
chain: UACGUAGGUGGUUUUCCCCUGAUAGUGCUAAGGGGGCCUGGAAGUUUGGACUGGGCAGAGCUCAACACAGCGUGGCAAAGUGGCUGUGGCUAGACUGCCUCUCUGGAUUCCUCGUCACUCAGCAGGGCAUCUCUGAGAGAAAUGCC

Variants of B1 are the subject of the series. The experiment in a line: self-cleavage, relative activity (ratio to wild type); higher = more cleavage; in vitro, sequencing; the parent is a self-cleaving ribozyme.
Take U96A G114A: the self-cleavage was 0.06.
The result for C95U A124U reads 0.2.
Under A94C A107G stands 0.13.
Under A94G G126A stands 0.21; under G97A G114A, 0.15.
Take U96A A141G: the self-cleavage stood at 0.08.
As to U96G U112C, the self-cleavage was 0.05.
The result for U96C U108G reads 0; that for U96C U108C, 0.17; that for U96A G122A, 0.06.
Under C98G U102C stands 0.14; under A94G A138G, 0.19.
Under A92C C113U stands 0.14; under A92G U104A, 0.06; under U96C G127A, 0.08.
In the case of U96C G127U, the self-cleavage stood at 0.19.
The result for U96C G127C reads 0.39.
The result for U96A C145A reads 0.06; that for U96G C120U, 0.04.
Under A92U A107C stands 0.9.
For A92U A107U, the self-cleavage was found to be 0.89.
Under U96A G125U stands 0.09; under C99U C145A, 1.03.
Under G93A U102C stands 0.06.
Under G93A U132C stands 0.03.
As for C99A U143C, the self-cleavage was 1.03.
The result for C99A U143A reads 0.84; that for C95A U112C, 0.05; that for U91G U143C, 0.07.
Under A92U A94G stands 0.05; under U96A A117G, 0.11.
Under A94U G105A stands 0.21.
For C98U U130C, the self-cleavage was found to be 0.5.
On to U96G A124G, for which the self-cleavage came out at 0.19.
Under G97A A141G stands 0.12; under C95A U143C, 0.08.
Under G93U U109C stands 0.02.
The result for U96C U130A reads 0.12.
As for A92G G126U, the self-cleavage worked out at 0.13.
Under U96A U134C stands 0.08.
The result for G97C C111A reads 0.18.
The result for U96A A124U reads 0.06; that for A94C G126C, 0.23; that for U96A A129G, 0.07.
As to U96A A129U, the self-cleavage was determined as 0.07.
Consider U96C C99U, for which the self-cleavage came out at 0.1.
The result for G97A U130C reads 0.19; that for U91C U143A, 0.72.
Under U91C U143G stands 0.62; under U91C U143C, 0.78; under U100A C111A, 1.19.
Regarding C98U A107G, the self-cleavage was found to be 0.46.
The result for U96A C116U reads 0.11.
Turning to A94G U132G, the self-cleavage worked out at 0.28.
Under G93U U112C stands 0.03.
As for A92U C110U, the self-cleavage was determined as 0.46.
Turning to U96A U102C, the self-cleavage is 0.12.
As for U96A U102A, the self-cleavage was 0.1.
Under U96C C128U stands 0.12; under U100A A142C, 1.
The result for U100A A142U reads 0.74; that for U96C U119A, 0.18; that for U96C U119C, 0.22.
Under G93U U102C stands 0.04; under U100A A117U, 1.01; under U100A A117G, 0.61.
As to C99U C133U, the self-cleavage is 0.34.
In the case of A92G U100A, the self-cleavage amounted to 0.13.
Under U96A A121C stands 0.06; under U96A A121G, 0.1; under A94G A129U, 0.22.
The result for A94U A129G reads 0.3; that for A94G G105U, 0.2; that for A94G G105A, 0.18.
Under A92G A129U stands 0.17.
Regarding A94G A121C, the self-cleavage was 0.57.
The result for A94G A121G reads 0.22; that for U96C G122A, 0.07; that for A92G C118U, 0.07.
The result for G93A U109A reads 0.03; that for G93A U109G, 0.06.
U96A U109C: the self-cleavage is 0.1.
Turning to A94G C133A, the self-cleavage turned out to be 0.46.
On to U96C G106U, for which the self-cleavage was 0.06.
Under U96C A129C stands 0.15; under A92U U108A, 0.6.
As for A92G G97C, the self-cleavage came out at 0.06.
Under U96C A124G stands 0.06.
Under A92G C133U stands 0.02.
Consider G93A U108C, for which the self-cleavage worked out at 0.03.
In the case of G93A G122C, the self-cleavage came to 0.01.
Under U96A U104G stands 0.08; under C99A A124G, 0.21; under U91G C146U, 0.1.
On to C99U A138U, for which the self-cleavage amounted to 0.74.
For C99U A138G, the self-cleavage stood at 1.14.
Turning to A94C U109C, the self-cleavage worked out at 0.
Under A94C U109A stands 0.05; under A92U U134A, 0.52; under A92U U134C, 0.71.
The result for A94G A140G reads 0.26.
In the case of A92G U119C, the self-cleavage amounted to 0.1.
As for G97U A138U, the self-cleavage was determined as 0.11.
Under U96G U119A stands 0.03.
Under C99G U112A stands 0.69; under A94G U108C, 0.61.
Consider C95A G114A, for which the self-cleavage is 0.07.
Under U96A C99U stands 0.03; under G97U A129U, 0.08.
The result for G93U A121C reads 0.03.
Under A92G U96C stands 0.25.
With A92C, the self-cleavage stood at 0.13.
Under A92G stands 0.1; under A92U, 0.66; under A94G A107G, 0.51.
Under A92G A94U stands 0.05; under A94G G97A, 0.02.
Turning to U96C U109C, the self-cleavage turned out to be 0.08.
Under U96C U109G stands 0.16; under U96C U109A, 0.15.
Under A94G U143A stands 0.55; under G93U U115C, 0.04.
The result for U96C C131U reads 0.09; that for A92U U104A, 0.44; that for U96A G144A, 0.07.
As for A94U A117G, the self-cleavage is 0.38.
The result for A94U A117U reads 0.41; that for G93A A142G, 0.04.
The result for U96G U109C reads 0.17.
The result for A92G C110U reads 0.05; that for U96C C123U, 0.04.
U96C G105A: the self-cleavage is 0.06.
The result for C95U A117U reads 0.21.
Under A92C U102C stands 0.14; under C99U U115C, 1.15; under C99U U115A, 0.33.
Under U96G U102C stands 0; under G93U G122A, 0.06; under A92G A124G, 0.04.
For A94U U102C, the self-cleavage stood at 0.16.
Regarding U100A A107G, the self-cleavage was found to be 0.87.
Consider A92G C113U, for which the self-cleavage came out at 0.1.
The result for C95U U96C reads 0.07; that for A92G C128U, 0.03.
The result for A92G C128A reads 0.04.
The result for U96G U134C reads 0.23; that for A94C U96C, 0.18.
For A94G U96A, the self-cleavage turned out to be 0.11.
Under A94G U96C stands 0.11; under C98A U108C, 0.4; under C98U U102C, 0.55.
The result for G93A U130C reads 0.02; that for U96C A138G, 0.2; that for A92G U109A, 0.08.
The result for A92G U109C reads 0.09; that for U96A U143A, 0.38; that for U96A U143C, 0.06.
As to U96A U143G, the self-cleavage was found to be 0.1.
The result for C99U A140G reads 0.71.
Take U96A A142G: the self-cleavage was determined as 0.08.
Under A92U U109A stands 0.34; under A92U U109C, 0.65; under A92G G114A, 0.1.
Under G97A A138G stands 0.14; under A94G A124U, 0.36; under A94U A142G, 0.34.
The result for A94U A142C reads 0.09.

The record behind these values is the RNAGym collection of RNA variant scans (doi:10.7554/elife.90254).
